Patent publication US20170081411A1 (published 2017)

Assays:
[1] = target: T1, His-Avidin-FKBP (wild-type FKBP) (biotinylated (position not given)); test: AlphaLISA direct format: 30 nM biotinylated FKBP + 30 nM FLAG-FRB, everolimus titrated 1:3 from 600 nM (EC50 is of the everolimus titration)
T1 construct: His tag and biotin acceptor tag are part of the entry; also called biotinylated wild-type FKBP; biotinylated FKBP
Description: (§1) FRB mutations were also ranked in an alternative assay format. […] All dilutions were made in 1× AlphaLISA Immunoassay buffer (PerkinElmer). Anti-Flag acceptor beads (PerkinElmer) were added at 10 ug/ml final concentration and incubated for one hour at room temperature. Streptavidin donor beads (PerkinElmer), were then added at a final concentration of 40 ug/ml and the plate was protected from light and incubated for 30 minutes at room temperature. The plate was then read on the PerkinElmer EnVision Multiplate reader equipped with the Alpha Module using excitation of 680 nm and a 570 nm Emission filter.

[2] = target: T1, His-Avidin-FKBP (wild-type FKBP); test: AlphaLISA direct format, everolimus titrated, EC50 against wild type FRB
Description: as §1

T1 sequence (chain, as listed by the source limits assumed): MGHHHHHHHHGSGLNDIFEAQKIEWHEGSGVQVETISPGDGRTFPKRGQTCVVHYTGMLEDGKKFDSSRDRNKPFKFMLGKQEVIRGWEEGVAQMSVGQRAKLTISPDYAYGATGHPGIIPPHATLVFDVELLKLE

Row | EC50 [1] | fold improved against wild type FRB [2] | Binder
1 | 3.9 nM |  | His-FLAG-FRB (wild-type FRB) (other, His and FLAG tags are part of the entry; also called wild type Flag-FRB) MGHHHHHHHHGSDYKDDDDKGSASRILWHEMWHEGLEEASRLYFGERNVKGMFEVLEPLHAMMERGPQTLKETSFNQAYGRDLMEAQEWCRKYMKSGNVKDLTQAWDLYYHVFRRISKTS
2 | 2.15 nM |  | His-FLAG-FRB E2032L (other, The entry already carries the mutation and the tags; also called E2032L (FLAG tagged)) MGHHHHHHHHGSDYKDDDDKGSASRILWHEMWHEGLLEASRLYFGERNVKGMFEVLEPLHAMMERGPQTLKETSFNQAYGRDLMEAQEWCRKYMKSGNVKDLTQAWDLYYHVFRRISKTS
3 | 1.44 nM | 3 fold | His-FLAG-FRB T2098L (other, The entry already carries the mutation and the tags; also called T2098L (FLAG tagged)) MGHHHHHHHHGSDYKDDDDKGSASRILWHEMWHEGLEEASRLYFGERNVKGMFEVLEPLHAMMERGPQTLKETSFNQAYGRDLMEAQEWCRKYMKSGNVKDLLQAWDLYYHVFRRISKTS
4 | 2.46 nM |  | His-FLAG-FRB E2032I (other, The entry already carries the mutation and the tags; also called E2032I (FLAG tagged)) MGHHHHHHHHGSDYKDDDDKGSASRILWHEMWHEGLIEASRLYFGERNVKGMFEVLEPLHAMMERGPQTLKETSFNQAYGRDLMEAQEWCRKYMKSGNVKDLTQAWDLYYHVFRRISKTS
